# From patent publication US20240101647A1 (published 2024)
# B1: VHH3.89 (VHH)
# VHH: QVQLQESGGGLVQPGGSLRLSCAASGFTLDYYAIGWFREVPGKEREGLSRIDSSDGSTYYADSVKGRFTISRDNTKNIVYLQMNNLKPEDTAVYYCATDPIIQGRNWYWTGWGQGTQVTVSS
# Molecular target: monomeric human Fc-fused SARS-CoV-2_RBD-SD1 (UniProt P0DTC2 319-591)
# Assay: BLI
binder,measurement,value
B1,koff,0.0002 s⁻¹
